The text below walks through data of patent US20170173151A1 (Genmab, published 2017).

In general, EC50 refers to the concentration that produces a half-maximal response. What is called koff is the first-order rate constant of dissociation.

Substitutions are numbered along the chain they refer to.

Sequences and labels used below:
T1: HisCD74v2 (recombinant extracellular domain of human CD74 variant 2, N-terminal hexameric His tag) (human, UniProt P04233 73-296)
T1 construct: also called recombinant CD74v2; CD74v2 extracellular domain
T1 sequence: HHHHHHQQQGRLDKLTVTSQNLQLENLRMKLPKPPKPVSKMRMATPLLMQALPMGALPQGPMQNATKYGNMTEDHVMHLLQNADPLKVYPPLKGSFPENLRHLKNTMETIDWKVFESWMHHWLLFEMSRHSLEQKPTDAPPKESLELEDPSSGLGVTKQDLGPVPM

T2: HisCD74v1 (recombinant extracellular domain of human CD74 variant 1, N-terminal hexameric His tag) (human, UniProt P04233 73-296)
T2 construct: also called recombinant CD74v1; CD74v1 extracellular domain
T2 sequence: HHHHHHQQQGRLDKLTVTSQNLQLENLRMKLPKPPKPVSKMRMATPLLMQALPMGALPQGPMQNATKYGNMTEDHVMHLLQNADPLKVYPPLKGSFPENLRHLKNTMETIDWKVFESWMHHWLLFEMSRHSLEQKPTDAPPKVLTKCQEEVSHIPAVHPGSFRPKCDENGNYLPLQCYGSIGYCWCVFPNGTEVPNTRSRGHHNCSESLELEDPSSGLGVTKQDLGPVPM

B1: HuMab-CD74-008 (antibody, V domains shown)
VH: QVQLVESGGGVVQPGRSLRLSCAASGFTFSSYAMHWVRQAPGKGLEWVAVISYDGSNKYYADSVKGRFTISRDNSKNTLYLQMNSLRAEDTAVYYCARGREITSQNIVILLDYWGQGTLVTVSS
VL: DIQMTQSPSSLSASVGDRVTITCRASQGISSWLAWYQQKPEKAPKSLIYAASSLQSGVPSRFSGSGSGTDFTLTISSLQPEDFATYYCQQYNSYPLTFGGGTKVEIK
notes: Human IgG,kappa antibody (HuMab) produced transiently in HEK-293F cells; also called antibody 008
B2: HuMab-CD74-011-mcMMAF (antibody, IgG1, V domains shown)
VH: QVQLVESGGGVVQPGRSLRLSCAASGFTFSSYGMHWVRQAPDKGLEWVAVIWYDGSNKYYADSVKGRFTISRDNSKNTLYLQMNSLRAEDTAVYYCARGGTLVRGAMYGTDVWGQGTTVTVSS
VL: B1 VL
modifications: drug-linker mcMMAF alkylated to the cysteines of the reduced antibody (DAR 3.9 by HIC)
notes: Antibody-drug conjugate of HuMab-CD74-011 (IgG1,kappa)
B3: HuMab-CD74-011-vcMMAE (antibody, IgG1, V domains shown)
VH: B2 VH
VL: B1 VL
modifications: drug-linker vcMMAE alkylated to the cysteines of the reduced antibody (DAR 3.8-3.9)
notes: Antibody-drug conjugate of HuMab-CD74-011 (IgG1,kappa); also called vcMMAE-conjugated HuMab-CD74-011
B4: HuMab-CD74-005-vcMMAE (antibody, IgG1, V domains shown)
VH: QVQLVESGGGVVQPGRSLRLSCAASGFTFSSYAMHWVRQAPGKGLEWVAVISYDGSNKYYADSVKGRFTISRDNSKNTLYLQMNSLRAEDTAVYYCASGRYYGSGSYSSYFDYWGQGTLVTVSS
VL: B1 VL with Y36F
modifications: drug-linker vcMMAE alkylated to the cysteines of the reduced antibody (DAR 3.9-4.0)
notes: Antibody-drug conjugate of HuMab-CD74-005 (IgG1,kappa); also called vcMMAE-conjugate of HuMab-CD74-005
B5: HuMab-CD74-005 (antibody, human IgG1, V domains shown)
VH: B4 VH
VL: B1 VL with Y36F
notes: Human IgG1,kappa; produced transiently in HEK-293F cells; also called antibody 005
B6: HuMab-CD74-005-mcMMAF (antibody, IgG1, V domains shown)
VH: B4 VH
VL: B1 VL with Y36F
modifications: drug-linker mcMMAF alkylated to the cysteines of the reduced antibody (DAR 3.9-4.0)
notes: Antibody-drug conjugate of HuMab-CD74-005 (IgG1,kappa); also called mcMMAF-conjugate of HuMab-CD74-005
B7: HuMab-CD74-006-vcMMAE (antibody, IgG1, V domains shown)
VH: B1 VH with N57I, A88V, Y94F, S123T
VL: B1 VL
modifications: drug-linker vcMMAE alkylated to the cysteines of the reduced antibody (DAR 4.0)
notes: Antibody-drug conjugate of HuMab-CD74-006 (IgG1,kappa); also called vcMMAE-conjugated HuMab-CD74-006
B8: HuMab-CD74-006-mcMMAF (antibody, IgG1, V domains shown)
VH: B1 VH with N57I, A88V, Y94F, S123T
VL: B1 VL
modifications: drug-linker mcMMAF alkylated to the cysteines of the reduced antibody (DAR 3.7-4.1)
notes: Antibody-drug conjugate of HuMab-CD74-006 (IgG1,kappa)

The first assay concerns the target T1, HisCD74v2 (recombinant extracellular …). The assay is described as follows: ELISA, coated recombinant CD74v2 extracellular domain. Here is the method: (§1) ELISA plates (Greiner BioOne) were coated 0/N at 4° C. with 2 μg/mL, 100 μL per well, recombinant CD74v1 or CD74v2 in PBS (B. Braun Melsungen AG). Sequences and production of the isoforms were described supra. ELISA wells were washed three times with PBS containing 0.05% Tween-20 (PBST), emptied, and blocked with 1% (w/v) BSA fraction V (Roche) in PBS at RT for 1 h while shaking (300 rpm), and emptied. Subsequently, 100 μL anti-CD74 HuMab antibodies were added in serial dilutions in 0.2% (w/v) BSA fraction V in PBST (assay buffer) and incubated while shaking at RT for 90 min. ELISA plates were washed three times with PBST, emptied, and bound HuMab antibodies were detected using HRP-conjugated goat-anti human IgG (100 μL; 1:5,000; Peroxidase Affinipure Goat anti-human IgG, F(ab′)2 Fragment Specific [min X Bov,Hrs,Ms Sr Prot]; Jackson Immunoresearch) in assay buffer and incubated while shaking at RT for 90 min. Plates were washed three times with PBST, emptied, and incubated with 100 μL ABTS solution (50 ml ABTS buffer [Roche] and one ABTS tablet [50 mg; Roche]). After incubation in the dark at RT for 30 min, the reaction was stopped by addition of 100 μL per well oxalic acid (2% [w/v]). Plates were measured at OD 405 nm in an ELISA reader (Biotek Instruments, EL808 Absorbance Microplate Reader).
(§2) Isotype control Ab IgG1-b12 was used as a negative control. Binding curves were analyzed using non-linear regression (sigmoidal dose-response with variable slope) using GraphPad Prism 5 software (GraphPad Software, San Diego, Calif., USA).
On to B1, for which the EC50 was 0.759 µg/mL.

The target in another assay is human CD74, naturally expressed on cells (Raji, Daudi, M4A4, NCI-H747 cells; human tonsil tissue) (human) (UniProt P04233). Description: FACS on Daudi cells, 10 µg/mL; mean of three experiments.
Molecule B2 displayed a Maximal binding (MFI at 10 µg/mL) of 5330 MFI.
Consider B3, for which the Maximal binding (MFI at 10 µg/mL) came to 3790 MFI.
Molecule B4 yielded a Maximal binding (MFI at 10 µg/mL) of 2860 MFI.
The same measure, in the same setting: the same measure for B5: 2780 MFI; for B6: 2530 MFI; for B7: 3280 MFI.
B8 registered a Maximal binding (MFI at 10 µg/mL) of 4050 MFI.

For another assay the target is unchanged. The assay is described as follows: cell-based or functional assay.
In turn, IgG1-b12 (antibody) yielded a % viability (minimal) of Raji cells, anti-kappa-ETA' assay of 85.9%.
In turn, B2 showed a % kill of Daudi cells at 10 µg/mL of 92%, a % kill of M4A4 cells at 10 µg/mL of 96%, a % kill of NCI-H747 cells at 10 µg/mL of 17% and a % kill of Raji cells at 10 µg/mL of 92%. The IC50 of killing of Daudi cells was 0.01 µg/mL, the IC50 of killing of M4A4 cells is 0.1 µg/mL and the IC50 of killing of Raji cells was found to be 0.01 µg/mL.
In the case of B3, the % kill of Daudi cells at 10 µg/mL turned out to be 86%, the % kill of M4A4 cells at 10 µg/mL worked out at 100%, the % kill of NCI-H747 cells at 10 µg/mL worked out at 40% and the % kill of Raji cells at 10 µg/mL is 89%. Besides, the IC50 of killing of Daudi cells worked out at 0.02 µg/mL, the IC50 of killing of M4A4 cells came out at 0.32 µg/mL, the IC50 of killing of NCI-H747 cells came to 7.91 µg/mL and the IC50 of killing of Raji cells was determined as 0.04 µg/mL.
Consider B4, for which the % kill of Daudi cells at 10 µg/mL stood at 85%, the % kill of M4A4 cells at 10 µg/mL worked out at 100%, the % kill of NCI-H747 cells at 10 µg/mL came to 41% and the % kill of Raji cells at 10 µg/mL turned out to be 88%. For the same molecule, the IC50 of killing of Daudi cells came out at 0.08 µg/mL, the IC50 of killing of M4A4 cells amounted to 0.56 µg/mL, the IC50 of killing of NCI-H747 cells turned out to be 7.48 µg/mL and the IC50 of killing of Raji cells came out at 0.11 µg/mL.
In turn, B6 came in with a % kill of Daudi cells at 10 µg/mL of 90%, a % kill of M4A4 cells at 10 µg/mL of 97%, a % kill of NCI-H747 cells at 10 µg/mL of 5% and a % kill of Raji cells at 10 µg/mL of 92%. Moreover, the IC50 of killing of Daudi cells is 0.03 µg/mL, the IC50 of killing of M4A4 cells was determined as 0.38 µg/mL and the IC50 of killing of Raji cells was 0.05 µg/mL.
Consider B7, for which the % kill of Daudi cells at 10 µg/mL worked out at 85%, the % kill of M4A4 cells at 10 µg/mL worked out at 100%, the % kill of NCI-H747 cells at 10 µg/mL turned out to be 49% and the % kill of Raji cells at 10 µg/mL turned out to be 90%. In addition, the IC50 of killing of Daudi cells is 0.03 µg/mL, the IC50 of killing of M4A4 cells came to 0.28 µg/mL, the IC50 of killing of NCI-H747 cells worked out at 6.12 µg/mL and the IC50 of killing of Raji cells was found to be 0.05 µg/mL.
Turning to B8, the % kill of Daudi cells at 10 µg/mL came out at 93%, the % kill of M4A4 cells at 10 µg/mL worked out at 97%, the % kill of NCI-H747 cells at 10 µg/mL is 21% and the % kill of Raji cells at 10 µg/mL is 93%. This molecule also displayed an IC50 of killing of Daudi cells of 0.01 µg/mL, an IC50 of killing of M4A4 cells of 0.12 µg/mL and an IC50 of killing of Raji cells of 0.01 µg/mL.

Another assay has as its target T2, HisCD74v1 (recombinant extracellular …). The assay is described as follows: ELISA, coated recombinant CD74v1 extracellular domain (CD74ECDHis); mean of four experiments. Here is the method: ELISA plates (Greiner BioOne) were coated with 2 μg/mL, 100 μL per well, recombinant CD74ECDHis in PBS (B. Braun Melsungen AG) at 4° C., 0/N. ELISA plates were emptied and blocked with 200 μL/well PBS containing 0.05% Tween-20 (PBST) while shaking (300 rpm), at RT for 1 hour, washed three times with 300 μL PBST and emptied. Subsequently, 100 μL anti-CD74 ADCs or unconjugated CD74-specific HuMab antibodies were added in serial dilutions in PBST and incubated while shaking at RT for 2 hours. ELISA plates were washed with PBST and emptied. Bound anti-CD74 ADCs and unconjugated HuMab antibodies were detected by addition of HRP-conjugated mouse-anti human IgG1 (100 μL; 0.015 μg/mL; Sanquin; # M1328) in PBST and incubation while shaking, at RT for 2 hours. Plates were washed with PBST, emptied and incubated with 100 μL ABTS solution (50 ml ABTS buffer [Roche] and one ABTS tablet [50 mg; Roche]). After incubation in the dark while shaking, at RT for 30 min, the reaction was stopped by incubation with 100 μL per well oxalic acid (2% [w/v]; Riedel de Haen) in the dark while shaking, for 10 min. Plates were measured at OD 405 nm in an ELISA reader (Biotek Instruments, EL808 Absorbance Microplate Reader).
IgG1-b12, an antibody binding to a non-related antigen, was used as a negative control (both unconjugated as well as in ADC format). Binding curves were analyzed by non-linear regression (sigmoidal dose-response with variable slope) using GraphPad Prism 5 software (GraphPad Software, San Diego, Calif., USA).
Background: ELISA stands for enzyme-linked immunosorbent assay.
Turning to B2, the EC50 is 0.02 µg/mL.
The same measure, in the same setting: the result for B3 reads 0.03 µg/mL; that for B4, 0.04 µg/mL; that for B5, 0.03 µg/mL.
Still for that read-out and setting: the same measure for B6: 0.04 µg/mL.
Same read-out and setting: the same measure for B7: 0.03 µg/mL; for B8: 0.02 µg/mL.

The target is the same in another assay. Description: ELISA, coated recombinant CD74v1 extracellular domain. Here is the method: as §1, §2
As to B1, the concentration for a half-maximal effect (EC50) was determined as 1.39 µg/mL.

Another assay deals with human CD74, naturally expressed on cells (Raji, Daudi, M4A4, NCI-H747 cells; human tonsil tissue) (human) (UniProt P04233). Description: FACS on Daudi cells; mean of three experiments.
The molecule B2 showed an EC50 of 0.05 µg/mL.
Molecule B3 displayed an EC50 of 0.05 µg/mL.
For the molecule B4, the EC50 came out at 0.26 µg/mL.
Same read-out and setting: the result for B5 reads 1.27 µg/mL.
The same measure, in the same setting: the result for B6 reads 1.05 µg/mL; that for B7, 0.03 µg/mL.
Still for that read-out and setting: the result for B8 reads 0.03 µg/mL.

Another assay has the same target. Description: FACS on Daudi cells at 0° C., Alexa-488-labeled antibody displaced by excess unlabeled antibody.
Molecule B1 yielded a koff of 0.00333 s⁻¹ and a time until half of the bound labeled antibody was replaced of 4 min.
